# Assay results reported in the RNAGym collection of RNA variant scans (doi:10.1073/pnas.2313332121).
# B1: TPR t1 (parent)
# chain: GACCAAUCUGCCCUCAGAGCUCGAGAACAUCUUCGGAUGCAGAGGAGGCAGGCUUCGGUGGCGCGAUAGCGCCAACGUCCUCAACCUCCAAUGCAUCCCACCACAUGAUGAUGCCUGAAGAGCCUUGGUUUUUUG
# Variants of: B1
# Assay: polymerase ribozyme fitness, log enrichment relative to wild type (log ratio); higher = more active; in vitro selection for triplet polymerase activity
# In short: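 Fitness compares each genotype's enrichment to that of the wild type on a logarithmic scale, averaging replicates with inverse-variance weights. The logarithm is base 2. Enrichment came from Illumina sequencing of input and output libraries after one triplicate round of in vitro selection, which included frozen incubation at −7 °C, of PCR-built, transcribed mutant libraries of each subunit of a heterodimeric triplet polymerase ribozyme. Only genotypes with ≥10 input reads and ≥1 read per output were kept.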
row,Variant,polymerase ribozyme fitness (log ratio)
1,GACUAAUCUGCCCUUAGAGCUCGAGAACAUCUUCGGAUGCAGAGGAGGCAGGCUUCGGUGGCGCGAUAGCGGCAACGUCCUCAACCUCCAAUGCAUCCUACCACAUGAUGAUGCCUGAAAAGCCUUGGUUUUUUG,-4.79
2,GACUAAUCUGCCCUCAGAGCUCGAGAACAUCUUCGGAUGCAGUGGAGGCAGGCUUCGGUGGCGCGAUACCGCCAACGUCCUCAACCUCCAAUGCAUCCCACCACAUGAUGAUGCCUGAAGAGCCUUGGUUUUUUG,-4.04
3,GACUAAUCUGCCCUGAGAGCUCGAGAAUAUCUUCGGAUGCAGAGGAGGCAGGCUUCGGUGGCGCGAUAGCGCCAACGUCCUCAACCUCCAAUGCAUCCCACCACAUGAUGAUGCCUGAAGGGCCUUGGUUUUUUG,-2.9
4,GACUAAUCUGACCUCAGAGCUCGAGAACAUCUUCGGAUGCAGAGGAGGCAGGCUUCGGUGGCGCGAUAGCGCCAAUGUCCUGAACCUCCAAUGCAUCCCACCACAUGAUUAUGCCUGAAGAGCCUUGGUUUUUUG,-5.02
5,GACUAAUCUGCCUUCAGAGCUCGAGAACAUCUUCGGAUGCAUAGGAGGCAGGCUCCGGUGGCGCGAUAGCACCAACGUCCUCAACCUCCAAUGCAUCCCACCACAUGAUGAUGCCUGAAGAGCCUUGGUUUUUUG,-2.58
6,GACUAAUCUGCUCUCAGAGCUCGAGAACAUCUUCGGAUGCAGAGGAGGCAGGCUUCGGUGGCGCGAUAGCGCCAACGUCCUCAACCUCCAAUGCAUCCCACCACAUGAUGAUGCCUGAAGAGCCUUGGUUUUUUG,0.148
7,GACUAAUCUGCCCUUAGGGCUCGAGAACAUCUUCGGAUGCAGAGGAGGCAGGCUUCGGUGGCGCGAUAGCGCCAACGUCCUCAACCUCCAAUGCAUCCCACCACAUGAUGAUACCUGAAGAGCCUUGGUUUUUUG,-3.08
8,GACUAAUCUGCCCUAAGAGCUCGAGAACAUCUUCGGAUGCAGAGCAGGCAGGCUUCGGUGUCGCGAUAGCGACAACGUCCUCAACCUCCAAUGCAUCCCACCACAUGAUGAUGCCUGAAGAGCCUUGGUUUUUUG,-2.72
9,GACUAAUCUGCCCUCAGAGAUCGAGAACAUCUUCGGAUGCAGAGGAGGCAGGCUUCGGUGGCGCGAUAGCGCCAACGUCCUCAACCUCCAAUGCAUCCCACCACAUGAUGGUGCCUGAAGAGCCUUGGUUUUUUG,-4.75
10,GACUAAUCUGCCCUCAGAGAUCGAGAACAUCUUCGGAUGCAGAGGAGGCAGGCUUCGGUGGCGCGAUAGCGCCAACGUCCUCAACCUCCAAUGCAUCCCACCACAUGAUGUUGCCUGAAGAGCCUUGGUUUUUUG,-2.94
11,GACUAAUCUGCCCUUAGAGCUCGAGAACAUCUUCGGAUGCAGAGGAGGCAGGCUUCUGUGGCGCGAUAGCGCCAACGUCCUCAACCUCCAAUGCAUCCCCCCACAUGAUGAUGCCUGAAGAGCCUUGGUUUUUUG,-4.18
12,GACUAAUCUGCCCUCAGAGCUCGAGAACAUCUUCGGAUGCAGAGGAGGCAGGCUUCGGUGGCGCGAUAGCGCCAUCGUCCUCAACCUCCAAUGCCACCCACCACAUGAUGAUGCCUGAAAAGCCUUGGUUUUUUG,-1.94
13,GACUAAUCUGCCCUCAGAGCUCGAGAACAUCUUCGGAUGCAGCGAAGGCAGGCUUCGGUGGCGCGAUAUCGCCAACGUCCUCAACCUCCAAUGCAUCCCACCACAUGAUGAUGCCUGAAGAGCAUUGGUUUUUUG,0.59
14,GACUAAUCUGCCCUCAGAGCUCGAGAACAUCUUCGGAUGCCGAGGAGGCAGGCUUCGGUGGCGCGAUAGCGCCAACGUCCUCAACCUCCAAUGCAUCCCACCACAUGAUGUUGCCUGACGAGCCUUGGUUUUUUG,-6.22
15,GACUAAUGUGCCCUCAGAGCUCGAGAAAAUCUUCUGAUGCAGAGGAGCGAGGCUUCGGUGGCGUGAUAGCGCCAACGUCCUCAACCUUCAAUGCAUCCCACCGCAUGAUGUUGCCUGAAGAGCCUUGGUUUUUUG,-6.13
16,GACUAAUCUGCUUUCAGAGCUCGAGAACAUCUUCGGAUGCAGAGGAGGCAGGCUUCGGUGGCGCGAUAGCGCCAACGUCCUCAACCUCCAAUGCAUCCCACCACAUGAUGAUGCCUGAAGAGCGUUGGUUUUUUG,1.84
17,GACUAAUCUGCCCUCAGAGCUCGAGAACAUCUUCGGAUGCAGAGGAGGCAGGCUUCGGUGGCGCGAUAGCGCCAGAUUCCUCAACCUCCAAUGCAUCCCACCACAUGAUGAUGCCUGAAGAGCCUUGGUUUUUUG,-2.12
18,GACUAAUAUGCCCUCAGAGCUCGAGAACAUCUUCGGAUGCAGAGGAGGCAGGUUUCGGUGGCGCGAUAUCGCCAACGUCCUCAACCUCCAAUGCAGCCCACCACAUGAUGAUGCCUGAAGAGCCUUGCUUUUUUG,-1.46
19,GACUAAUCUGCCCUCAGAGCUCGAGAACAUCUUCGGAUGCGGAGGAGGCAGGCUUCGGUGGAGCGAUAGCGCCAACGUCCUCACCCUCCAAUGCAUCCCACCACAUGAUGAUGCUUGAAGAGCCUUGGUUUUUUG,-4.65
20,GACUAAUCUGCCCUCAGAGCUCGAGAACAUCUUCGGAUGCAGAGGAGGCAGGCUUCGGUGGCGCGAUAGCGCCAACGUCCUCAACCUCCAAUGCAUCCCUCCACAUGAUGAUGCCUGAAGAGCCUUGGUUUUUUG,-1.08
21,GACUAAUCUGCCCUCAGAGAUCGAGAACAUCUUCGGAUGCAGAGGAGGCAGGCUUCGGUGGCGCGAUAGCGCCAACGUCCUCAACCUCCAAUGCAUCCCACCACAUGAUGAUGCCUGAAGAGCCUUGGUUUUUUG,-2.6
